Measurements published in article PMC6212719.
Where a chain is given by its changes, count along the chain named.

B1: sigAP-TGTG (dsDNA)
DNA 1: CACTGAAACTTGCCCGCTCGGGCTGTACTCGTGCGCAGTTGTGTTACAATGGTCAGCGGCGGCCGCCCGACCGATAGCGCGCGAGTATTCACGCTGATATCAACGC
DNA 2: GCGTTGATATCAGCGTGAATACTCGCGCGCTATCGGTCGGGCGGCCGCCGCTGACCATTGTAACACAACTGCGCACGAGTACAGCCCGAGCGGGCAAGTTTCAGTG
B2: sigAP-TG1 (dsDNA)
DNA 1: B1 DNA 1 with T40A, G41A
DNA 2: B1 DNA 2 with C66T, A67T

Columns and labels:
[1] = biological target: T1, MtbRNAP core (alpha2 beta beta' omega);sigma B (Mycobacterium …, UniProt P9WGZ1;P9WGY9;P9WGY7;P9WGY5;P9WGI5 1-347;1-1178;1-1316;1-110;1-323, |); test: EMSA
[2] = biological target: MtbRNAP core (alpha2 beta beta' omega);sigma B;RbpA KKAA (Mycobacterium …, UniProt P9WGZ1;P9WGY9;P9WGY7;P9WGY5;P9WGI5;P9WHJ5 1-347;1-1178;1-1316;1-110;1-323;1-111, ||K73A;K74A); test: EMSA
[3] = biological target: MtbRNAP core (alpha2 beta beta' omega);sigma B;RbpA (Mycobacterium …, UniProt P9WGZ1;P9WGY9;P9WGY7;P9WGY5;P9WGI5;P9WHJ5 1-347;1-1178;1-1316;1-110;1-323;1-111, ||); test: EMSA
[4] = biological target: MtbRNAP core (alpha2 beta beta' omega);sigma B;RbpA R79A (Mycobacterium …, UniProt P9WGZ1;P9WGY9;P9WGY7;P9WGY5;P9WGI5;P9WHJ5 1-347;1-1178;1-1316;1-110;1-323;1-111, ||R79A); test: KMnO4 footprinting
[5] = biological target: T1, MtbRNAP core (alpha2 beta beta' …); test: EMSA; remark: listed apart in the source

Binder	Kd [1] [nM]	binding result [2]	Kd [3] [nM]	binding result [4]	binding result [5]
B1	117	binds	42	binds	–
B2	–	–	–	–	binds
